Our source for the Km, kcat and kcat/Km values is PMC5784979, “Direct comparison of the four aldehyde oxidase enzymes present in mouse gives insight into their substrate specificities” (PLoS ONE, 2018).

What all share (assay): purified protein
Conditions in all cases: 100 μM DCPIP as electron acceptor, 50 mM Tris-HCl, 1 mM EDTA, pH 8.0, 37°C, corrected to 100% Mo saturation

Substrate in data set [1]: c1ncc2[nH]cnc2n1
The class given is biochemical, Mus musculus.

Substrate in data set [2]: c1ccc2c(c1)cnc1ccccc12
Substrate in data set [3]: O=Cc1ccccc1
It is filed as biochemical, Mus musculus.

Substrate in data set [4]: c1ccc2cnncc2c1
The class given is biochemical, Mus musculus.

Substrate in data set [5]: O=Cc1ccccc1O
The class given is biochemical, Mus musculus.

Substrate in data set [6]: CCCCC=O
It is filed as biochemical, Mus musculus.

B1: mAOX2 (Mus musculus) (protein)
chain: MPCPAQISDDLEFFVNGRKVTEKNVDPEVTLLAFLRKNLCLTGTKDACGTGGCGACTVMVSQHDPVCKKTRHFSVMACLVPLCSLHGAAVTTVEGVGSIKTRLHPVQERIAKSHGTQCGFCTPGMVMSIYTLLRNHPQPSEEQLMEALGGNLCRCTGYRPILESGRTFCMEPDGCPQKGTGQCCLDQKESDSSGSKSDICTKLFVKDEFQPLDPTQELIFPPELLRMAENPEKQTLTFYGERITWIAPGTLQELLVLKAKYPEAPLISGNTALGPAMKSQGHFYPVLLSPARIPDLRMVTKTSGGLTIGACCSLAQVKDILAESISELPQEKTQTYRALLKHLRSLAGQQIRNMASLGGHVISRHCYSDLNPILSVGNTTLNLLSEEGPRQIPLSGHFLAGLASADLKPEEILGSVYIPHSQKREFVSAFRQAQCHQNALPDVNAGMRVLFREGTDVIEELSIAYGGVGPTTVSAQRSCQQLLGRRWNALMLDEACRLLLDEVSLPGSALGGKVEFRRTLIVSLFFKFYLEVLQELKADQKLPPESTDSQRYPEIADRFLSSLGDFQVTLPRGVQTYQRVDSHQPLQDPVGRPIMHLSGLKHATGEAVFCDDIPRVDKELFMALVTSTRAHARIISIDSSEVLDLPGVVDVITAEDIPGNNGEEDDKLLAVDKVLCVGQVICAVVAETDVQAKRATEKIKITYEDLKPVIFTIEDAIKHNSFLCPEKKLEQGNIEEAFENVDQVAEGTVHVGGQEHFYMETQRVLVIPKTEDKELDMYVSTQDPAHVQKTVSSTLNIPISRITCHVKRVGGGFGGKVGRPAVFGAIAAVGAVKTGHPIRLVLDREDDMLITGGRHPLFAKYKVGFMNSGRIKALDIECYINGGCTLDDSELVTEFLVLKLENAYKIRNLRLRGRACMTNLPSNTAFRGFGFPQGALVTESCITAVAAKCGLPPEKIREKNMYKTVDKTIYKQAFNPDPLIRCWNECLDKSSFHIRRTRVDEFNKKSYWKKRGIAIVPMKFSVGFAATSYHQAAALVHIYTDGSVLVAHGGNELGQGIHTKMLQVASRELKIPLSYLHICETSTTTVPNTIATAASVGADVNGRAVQNACQILLKRLEPVIKKNPEGTWRDWIEAAFEKRISLSATGYFRGYKAFMDWEKGEGDPFPYYVYGAACSEVEIDCLTGAHKKIRTDIVMDACCSLNPAIDIGQIEGAFIQGMGLYTTEELLYSPEGVLYSRSPDKYKIPTVTDVPEQFNVSLLPSSQTPLTLYSSKGLGESGMFLGSSVFFAIVDAVAAARRQRDIAEDFTVKSPATPEWVRMACADRFTDMIPRDDPKTFKPWSIPIA
notes: recombinant from E. coli TP1000 (codon-optimized plasmid pMAOX2co), Ni-NTA and Superdex 200 purified, chemically sulfurated, dimer (300 kDa)
B1: the Km in the data set “purified protein [1]” turned out to be 298.4 µM. In the data set “purified protein [2]”, the Km was 1.9 ± 0.3 µM and the kcat is 1.962 ± 0.0817 s⁻¹.

B2: mAOX3 (Mus musculus) (protein)
chain: MSPSKESDELIFFVNGKKVTERNADPEVNLLFYLRKVIRLTGTKYGCGGGDCGACTVMISRYDPISKRISHFSATACLVPICSLHGAAVTTVEGIGSTKTRIHPVQERIAKGHGTQCGFCTPGMVMSIYTLLRNHPEPSTEQIMETLGGNLCRCTGYRPIVESAKSFCPSSTCCQMNGEGKCCLDEEKNEPERKNSVCTKLYEKKEFQPLDPTQELIFPPELMRMAEESQNTVLTFRGERTTWIAPGTLNDLLELKMKHPSAPLVIGNTYLGLHMKFTDVSYPIIISPARILELFVVTNTKQGLTLGAGLSLTQVKNVLSDVVSRLPKEKTQIYCALLKQLKTLAGQQIRNVASLGGHIISRLPTSDLNPILGIGNCILNVASTEGIQQIPLNDHFLAGVPDAILKPEQVLISVFVPRSSKWEFVSAFRQAPRQQNAFATVNAGMKVVFKEDTNTITDLGILYGGIGATVISADKSCRQLIGRCWDEEMLDDAGKMICEEVSLLMAAPGGMEEYRKTLAISFLFMFYLDVLKQLKTRDPHKYPDISQKLLHILEDFPLTMPYGMQSFQDVDFQQPLQDPIGRPIMHQSGIKHATGEAVFCDDMSVLPGELFLAVVTSSKSHAKIISLDASEALASLGVVDVVTARDVPGDNGREEESLYAQDEVICVGQIVCAVAADSYAHAQQAAKKVKIVYQDIEPMIVTVQDALQYESFIGPERKLEQGNVEEAFQCADQILEGEVHLGGQEHFYMETQSVRVVPKGEDKEMDIYVSSQDAAFTQEMVARTLGIPKNRINCHVKRVGGAFGGKASKPGLLASVAAVAAQKTGRPIRFILERRDDMLITGGRHPLLGKYKIGFMNNGKIKAADIQLYINGGCTPDDSELVIEYALLKLENAYKIPNLRVRGRVCKTNLPSNTAFRGFGFPQGAFVTETCMSAVAAKCRLPPEKVRELNMYRTIDRTIHNQEFDPTNLLQCWEACVENSSYYNRKKAVDEFNQQRFWKKRGIAIIPMKFSVGFPKTFYYQAAALVQIYTDGSVLVAHGGVELGQGINTKMIQVASRELKIPMSYIHLDEMSTVTVPNTVTTGASTGADVNGRAVQNACQILMKRLEPIIKQNPSGTWEEWVKEAFVQSISLSATGYFRGYQADMDWEKGEGDIFPYFVFGAACSEVEIDCLTGAHKNIRTDIVMDGSFSINPAVDIGQIEGAFVQGLGLYTLEELKYSPEGVLYTRGPHQYKIASVTDIPEEFHVSLLTPTPNPKAIYSSKGLGEAGTFLGCSVFFAIAAAVAAAREERGLSPIWAINSPATAEVIRMACEDQFTNLVPQTDSKCCKPWSIPVA
notes: recombinant from E. coli TP1000 (plasmid pMMA1), Ni-NTA and Superdex 200 purified, chemically sulfurated, dimer (300 kDa)
For B2, the figures for the Km in “purified protein [3]”, in “purified protein [1]” and in “purified protein [2]” were 0.8 ± 0.1 µM, 3181 ± 334 µM and 10.8 ± 1.8 µM, respectively. Besides, the kcat in the data set “purified protein [3]” is 2.512 ± 0.06 s⁻¹; in “purified protein [1]”, 7.862 ± 0.298 s⁻¹; in “purified protein [2]” it was 2.353 ± 0.0917 s⁻¹.

B3: mAOX4 (Mus musculus) (protein)
chain: MPSVSESDELIFFVNGKKVIEKNPDPEKNLLFYTRKVLNLTGTKYSCGTGGCGACTVMVSRYNPKTRKIHHYPATACLVPICWLHGAAITTVEGVGSIKKRVHPVQERLAKCHGTQCGFCSPGMVMSIYTLLRNHPEPTPDQITEALGGNLCRCTGYRPIVESGKTFSQKSTVCQMKGSGKCCMDPDEKCLESREKKMCTKLYNEDEFQPFDPSQEPIFPPELIRMAEDPNKRRLTFQGKRTTWIIPVTLNDLLELKASYPEAPLVMGNTTVGPGIKFNDEFYPVFISPLGVPELNLMDTTNNGVTIGAGYSLAQLKDTLDFLVSEQPKEKTKTFHALQKHLRTLAGPQIRNMATLGGHTASRPNFSDLNPILAAGNATINVVSREGKDRQLPLNGPFLEKLPEADLKPEEVILSIFIPYTAQWQFVSGLRLAQRQENAFAIVNAGMSVEFEEGTNTIKDLKMFFGSVAPTVVSASQTCKQLIGRQWDDQMLSDACQLVLQEIRIPPDAEGGMVEYRRTLIISLLFKFYLKVQRWLNEMDPQKFPDIPGKFVSALDDFPIETPQGIQMFQCVDPKQPQKDPVGHPIMHQSGIKHATGEAIFIDDMPPIDQELCLAVVTSTRAHAKITSLDVSEALACPGVVDVITAEDVPGENDHNGEILYAQSEVICVGQIICTVAADTYIHAKEAAKRVKIAYDDIEPTIITIEEALEHNSFLSPEKKIEQGNVDYAFKHVDQIVEGEIHVEGQEHFYMETQTILAIPQTEDKEMVLHLGTQFPTHVQEFVSAALNVPRSRIACHMKRAGGAFGGKVTKPALLGAVCAVAANKTGRPIRFILERSDDMLITAGRHPLLGKYKIGFMNNGEIRAADVEYYTNGGCTPDESELVIEFVVLKSENTYHIPNFRCRGRACKTNLPSNTAFRGFGFPQATVVVEAYIAAVASKCNLLPEEVREINMYKKTSKTAYKQTFNPEPLRRCWKECLEKSSFFARKKAAEEFNGNNYWKKRGLAVVPMKFSVAVPIAFYNQAAALVHIFLDGSVLLTHGGCELGQGLHTKMIQVASRELNVPKSYVHFSETSTTTVPNSAFTAGSMGADINGKAVQNACQILMDRLRPIIRKNPKGKWEEWIKMAFEESISLSATGYFKGYQTNMDWKKEEGDPYPYYVYGAACSEVEVDCLTGAHKLLRTDIFVDAAFSINPALDIGQVEGAFIQGMGFYTTEELKYSPKGVLYSRGPEDYKIPTITEIPEEFYVTLVHSRNPIAIYSSKGLGEAGMFLGSSVLFAIYDAVTTARKERGLSDIFPLNSPATPEVIRMACTDQFTEMIPRDDPSTFTPWSIHVS
notes: recombinant from E. coli TP1000 (plasmid pMAOX4), Ni-NTA and Superdex 200 purified, chemically sulfurated, dimer (300 kDa)
For B3, the Km in “purified protein [4]” came out at 8.3 ± 0.9 µM; in the data set “purified protein [5]”, 13.2 ± 2.4 µM; in “purified protein [3]” it was 2.2 ± 0.2 µM; in the data set “purified protein [6]”, 48.3 ± 8.7 µM; in the data set “purified protein [1]” it was 12344 µM. The kcat in the data set “purified protein [4]” is 5.51 ± 0.142 s⁻¹; in the data set “purified protein [5]”, 3.42 ± 0.112 s⁻¹; in “purified protein [3]”, 1.52 ± 0.0383 s⁻¹; in the data set “purified protein [6]”, 2.8 ± 0.22 s⁻¹. The specificity constant (kcat/Km) was 665000 M⁻¹ s⁻¹ in the data set “purified protein [4]”, 260000 M⁻¹ s⁻¹ in the data set “purified protein [5]”, 693000 M⁻¹ s⁻¹ in “purified protein [3]” and 58300 M⁻¹ s⁻¹ in the data set “purified protein [6]”.

The term Km denotes the substrate concentration at which the rate is half of its maximum. As usually defined, the kcat is the number of substrate molecules converted per active site and unit of time at saturation. By kcat/Km is commonly meant the turnover number divided by the Michaelis constant.
